# Source: article PMC6479361, “Characterization of a New DyP-Peroxidase from the Alkaliphilic Cellulomonad, Cellulomonas bogoriensis” (Molecules, 2019)
# Substrate: Nc1c(S(=O)(=O)O)cc(Nc2cccc(S(=O)(=O)CCOS(=O)(=O)O)c2)c2c1C(=O)c1ccccc1C2=O
# Assay: purified protein
# Format: biochemical, Actinotalea bogoriensis
# Conditions: 100 µM H2O2, 100 mM citrate pH 5, 50 nM enzyme, His-SUMO fusion
Protein,Km,kcat
"CboDyP (Actinotalea bogoriensis 69B4 = DSM 16987) (protein, codon-optimized synthetic gene, recombinant in E. coli NEB 10-beta; N-terminal His-SUMO fusion kept for kinetics, SUMO cleaved for crystals; Tat signal predicted, first 22 residues not visible in crystal; heme-containing; motif GXXEG) VGAGAGARWGSRAPEAPQPARAAGPGDVVVPCHGEHQAGIVTPPPSFIALVALDLASTSDRASVERLLRVWTVDIERLTTGRPGLADSEPELALVPAALTVTVGFGPGLLTAAGLRHRAPAWLHPLPPFGIDRLDPAWCDGDVVLQVCADDRTTLAHAVRVLTKEAQGLASVRWVQRGFRRSPGISEPDGTSMRNLMGQVEGTANLDPRTDPDLLWHRDGEPGWLTGGTSMVVRRIAMNLDTWDELSRGAREATIGRTLRTGAPLTGRAEHDEPDLEALDDHGRPVIDLEAHIRRARPTQREETFLRRAYNYDEAPPPGRASDSGLLFVTYQRDVDAQFTPVQRRLDAADLLNEWTFPVGSAVFAVPGGWSAGEYVGQRLLEG",17 µM,0.22 s⁻¹
"CboDyP (Actinotalea bogoriensis 69B4 = DSM 16987; E205D) (protein, codon-optimized synthetic gene, recombinant in E. coli NEB 10-beta; N-terminal His-SUMO fusion kept for kinetics, SUMO cleaved for crystals; Tat signal predicted, first 22 residues not visible in crystal; heme-containing; motif GXXEG) VGAGAGARWGSRAPEAPQPARAAGPGDVVVPCHGEHQAGIVTPPPSFIALVALDLASTSDRASVERLLRVWTVDIERLTTGRPGLADSEPELALVPAALTVTVGFGPGLLTAAGLRHRAPAWLHPLPPFGIDRLDPAWCDGDVVLQVCADDRTTLAHAVRVLTKEAQGLASVRWVQRGFRRSPGISEPDGTSMRNLMGQVDGTANLDPRTDPDLLWHRDGEPGWLTGGTSMVVRRIAMNLDTWDELSRGAREATIGRTLRTGAPLTGRAEHDEPDLEALDDHGRPVIDLEAHIRRARPTQREETFLRRAYNYDEAPPPGRASDSGLLFVTYQRDVDAQFTPVQRRLDAADLLNEWTFPVGSAVFAVPGGWSAGEYVGQRLLEG",36 µM,2.88 s⁻¹
